B1: GST-tagged Ypt7 (natural protein)
chain: MSSRKKNILKVIILGDSGVGKTSLMHRYVNDKYSQQYKATIGADFLTKEVTVDGDKVATMQVWDTAGQERFQSLGVAFYRGADCCVLVYDVTNASSFENIKSWRDEFLVHANVNSPETFPFVILGNKIDAEESKKIVSEKSAQELAKSLGDIPLFLTSAKNAINVDTAFEEIARSALQQNQADTEAFEDDYNDAINIRLDGENNSCSC
B2: Vps17 (natural protein)
chain: MTSAVPYDPYDDLDNNPFAEPQEEDSEPAATTTDGSSSMSEERVGTEQTAASVQDNGTANNIQNGLGEEGNATRSKTSNEHNENQQPSQPSERVILPERSDEKKKYTLLAKVTGLERFGSATGKKENPTIIFDCSTNLPTFRKQQYKNVKKSYEEFHQLFKYLNVAIQESFVPTLPSAYTTFGINSEEDRMKVTRNFQLWFNRLSQDPLIIRNEEVAFFIESDFNTYTPINKSKSLASGLKRKTLKQLAPPYDEITELAEFRPLVKSIYVVSQSLQEKLLRVSRNRKMMVQEENAFGQDFVNLDEHNKLYRRYGKILTAVGDIDSIIATMDMATLYDGLEWIVRDAYAVKEALTNRHFIMRNLVQAQQNSKAKQEQARRFRSRRDINPMKIDEALRQLKAAAKNEQVLTLKLQRITSNMIIERKQWISWYEEWIRSSIKEFTLRKIEYERKKLTLLERVRSDIRKADENGGLSRLGRHAVSNNNSDTSQTLKGDSWTGESNRKSQIPINKIAHTEFDDELFTEDDGYNSQDSDTTSLNARHAASLLGMSTK

Columns and labels:
[1] = biological target: cargo selection complex (CSC; Vps35, Vps26, Vps29) (S. cerevisiae, UniProt P34110;P40335;P38759); experiment: pull-down
[2] = biological target: CSC with GFP-tagged Vps29 (CSC-GFP) (S. cerevisiae, UniProt P34110;P40335;P38759); experiment: pull-down
[3] = biological target: T1, Vps5 with C-terminal TAP tag (S. cerevisiae, UniProt Q92331 1-675); experiment: tandem affinity purification
T1 sequence: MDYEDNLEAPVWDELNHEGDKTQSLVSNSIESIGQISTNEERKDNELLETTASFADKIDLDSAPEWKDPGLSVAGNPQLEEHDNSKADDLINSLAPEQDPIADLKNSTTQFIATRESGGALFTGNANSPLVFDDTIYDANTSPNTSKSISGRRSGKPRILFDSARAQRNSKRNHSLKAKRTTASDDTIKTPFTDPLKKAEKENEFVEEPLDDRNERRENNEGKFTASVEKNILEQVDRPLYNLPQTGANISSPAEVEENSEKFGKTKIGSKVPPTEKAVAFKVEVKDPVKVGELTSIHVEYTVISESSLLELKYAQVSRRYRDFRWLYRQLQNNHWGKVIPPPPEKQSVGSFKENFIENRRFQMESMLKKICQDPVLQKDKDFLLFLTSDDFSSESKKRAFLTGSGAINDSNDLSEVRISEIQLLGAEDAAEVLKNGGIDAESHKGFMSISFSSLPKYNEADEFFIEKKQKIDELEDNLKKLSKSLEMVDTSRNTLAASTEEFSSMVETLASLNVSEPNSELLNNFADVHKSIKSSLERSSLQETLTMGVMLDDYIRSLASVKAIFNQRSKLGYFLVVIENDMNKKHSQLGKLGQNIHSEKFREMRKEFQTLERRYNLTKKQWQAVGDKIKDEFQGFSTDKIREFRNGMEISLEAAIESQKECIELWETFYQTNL

Binder	binding result [1]	binding result [2]	binding result [3]
B1	binds	binds	
B2			binds

From article PMC5349785 (Molecular Biology of the Cell, 2017)
